Reference: the supplement of paper PMC10567573

B1: BTBD1 (parent)
chain: YGSIHGPTDYQVNIQIIEYEKKQT
B2: KLHL20 (parent)
chain: YQDMIYAVGGRDDTTELSSAERYN

Variants of: B1
Assay: protein stability index of a GFP-peptide fusion (GPS, HEK-293T) (PSI 1-6); higher = more stable
Settings: c terminus: a fixed tail appended
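Note: lentivirally expressed fusions sorted by FACS into six bins by GFP to DsRed ratio, PSI derived from sequencing read proportions per bin multiplied by bin number.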

Protein stability index of substitutions, site by site:
Y1: N 3.32 | L 2.94 | H 3.45 | S 3.79 | E 3.93 | K 3.15 | T 3.83 | A 3.35 | I 2.92 | P 3.67 | F 2.52 | M 3.73 | G 3.66 | R 3.44 | W 2.67 | C 3.4 | Q 3.8 | V 3.84 | D 3.93
S3: T 3.08 | D 3.13 | Q 3.33 | L 2.94 | I 2.24 | E 3 | H 3.09 | G 2.88 | N 1.6 | M 2.87 | P 3.06 | R 2.88 | C 2.06 | A 2.85 | W 2.17 | Y 2.15 | V 2.57 | K 3.17 | F 2.64
I4: C 2.32 | L 2.94 | K 2.24 | P 3.1 | G 2.16 | M 2.41 | H 2.79 | N 2.93 | T 2.81 | F 2.21 | Y 2.94 | W 2.5 | R 1.93 | Q 3.06 | A 2.95 | S 2.45 | D 4.08 | V 2.63 | E 3.45
G6: A 2.96 | K 3 | H 3 | V 2.21 | D 3.61 | L 2.6 | W 2.71 | M 2.85 | Y 2.44 | P 3.18 | R 2.88 | S 3.15 | C 2.81 | Q 3.26 | E 3.54 | T 3.19 | F 1.63 | N 3.4 | I 2.17
T8: W 3.36 | R 2.57 | H 2.38 | G 2.44 | C 2.25 | F 2.17 | V 2.06 | M 1.74 | Q 3.08 | A 2.71 | E 2.88 | L 1.91 | Y 2.56 | D 3.66 | S 3.11 | P 2.97 | N 2.94 | K 2.16 | I 2.06
D9: P 2.44 | G 1.75 | M 2.23 | L 3.37 | Q 2.18 | T 2.42 | E 1.95 | Y 2.08 | C 1.94 | A 3.12 | H 1.63 | I 4.42 | N 1.98 | K 1.82 | R 2.65 | V 2.24 | S 1.65
H5: P 3.29 | W 2.09 | K 3.72 | Q 2.78 | E 3.71 | G 3.06 | C 2.41 | Y 1.98 | R 2.98 | S 3.26 | L 2.88 | V 2.04 | M 2.73 | I 2.67 | T 2.52 | F 1.99 | N 2.13 | D 3.09 | A 3.31
Y10: K 4.24 | D 4.3 | H 3.77 | M 3.63 | P 4.31 | F 2.43 | L 2.87 | N 4.48 | Q 4.33 | I 2.44 | C 2.96 | E 4.55 | G 3.79 | A 4.06
G2: P 2.81 | R 2.5 | W 2.5 | L 2.08 | V 3.34 | T 1.9 | Q 2.59 | A 1.62 | M 2.83 | N 3.28 | H 2.36 | I 1.7 | S 2.45 | C 2.56 | Y 2.03 | F 2.48 | K 3.06 | E 3.59 | D 3.7
P7: E 3.33 | A 2.6 | M 2.31 | C 2 | S 2.76 | F 2.47 | N 2.84 | D 3.29 | G 2.87 | Y 1.75 | T 2.73 | Q 2.65 | K 2.49 | R 1.75 | W 4.06 | H 2.65 | I 2.44 | L 2.21 | V 2.63

Variants of: B2
Assay: as above
Settings: c terminus: a fixed tail appended

Protein stability index of substitutions, site by site:
Y23: D 2.98 | S 2.54 | R 2.77 | Q 3.05 | T 2.37 | C 2.32 | K 2.74 | N 2.59 | M 2.29 | P 2.72 | G 2.18 | W 3 | V 2.93 | E 2.77 | F 2.13 | A 1.82 | I 1.93 | L 2.25 | H 2.64
N24: M 2.08 | D 3.62 | E 2.66 | P 2.42 | L 2.69 | K 2.16 | S 2.24 | R 2.7 | I 2.02 | V 1.75 | W 1.93 | H 2.44 | Y 2.31 | Q 2.48 | T 1.85 | G 2.99 | F 2.41 | C 2.02 | A 1.75
R22: L 2.15 | W 2.56 | P 2.69 | N 1.92 | D 2.49 | I 2.16 | Q 2.77 | G 2.87 | H 2.38 | C 2.52 | S 2.48 | Y 2.63 | M 2.03 | K 2.08 | F 2.48 | V 2.52 | E 2.53 | A 2.45 | T 2.18
A20: W 1.66 | F 2.04 | N 2.82 | L 1.82 | S 1.98 | E 3.06 | P 2.05 | Y 1.78 | M 2.38 | I 2.05 | D 2.79 | V 2.41 | H 2.74 | R 2.76 | K 2.03 | G 2.29 | C 2.15 | T 2.21 | Q 2.91
E21: G 1.94 | F 2.28 | A 2 | N 1.89 | V 2.09 | W 1.58 | T 2.11 | S 1.92 | P 2.55 | Q 1.95 | C 2.23 | H 2.04 | I 1.95 | M 2.75 | D 2.29 | Y 1.69 | L 1.95 | K 2.37 | R 1.75
L17: V 2 | H 2.32 | F 2.14 | Y 2.03 | Q 2.24 | M 2.35 | I 2.33 | P 2.49 | S 2.06 | W 2.45 | E 2.58 | N 2.38 | C 2.52 | K 2.41 | R 2.19 | D 2.12 | T 2.89 | G 2.82
S18: G 2.5 | V 2.32 | W 2.27 | H 2.9 | N 2.66 | L 2.76 | P 2.1 | M 2.07 | Q 2.22 | I 2.12 | C 2.07 | F 2.63 | K 2.25 | E 2.02 | Y 2.22 | R 1.99 | T 2.1 | D 2.43 | A 2.03
S19: K 2.34 | E 2.45 | Q 2.25 | C 2.16 | M 2.01 | T 2.54 | Y 1.8 | L 2.02 | H 2.33 | A 2.87 | G 2.32 | V 1.99 | R 2.53 | W 1.99 | F 2.31 | D 2.43 | P 2.66 | N 2.11 | I 2.01
